From article PMC5150636, “Isolated pores dissected from human two-pore channel 2 are functional” (Scientific Reports, 2016)

Biological target: the molecule itself
Assay: SEC; Superdex 200 10/300 GL, buffer A (25 mM Tris, 500 mM NaCl, 0.174% (w/v) DM, pH 7.4), 0.5 ml/min, column calibrated with protein standards; fractions read by SDS PAGE; oligomer size from the elution volume

B1: human TPC2 DI pore (S212-A337), hexa-histidine-tagged (domain or fragment, UniProt Q8NHX9 212-337, looked up)
chain: SLPEMASVGLLLAIHLCLFTMFGMLLFAGGKQDDGQDRERLTYFQNLPESLTSLLVLLTTANNPDVMIPAYSKNRAYAIFFIVFTVIGSLFLMNLLTAIIYSQFRGYLMKSLQTSLFRRRLGTRAA
notes: two-pore channel 2 (TPC2), human, domain I pore region (S5-S6), residues S212-A337, codon-optimised synthetic gene in pET15b; numbers count on the full length channel; No removal of the His tag is described; also called hexaHis-DI pore; DI pore-only protein
  stoichiometry N: 4
